Legend:
[1] = biological target: T1, SARS-CoV-2 바이러스 표면 단백질 (RBD) (SARS-CoV-2, UniProt P0DTC2 319-541); experiment: BLI (Octet), Full IgG
[2] = biological target: T1, SARS-CoV-2 바이러스 표면 단백질 (RBD); experiment: BLI (Octet), Full IgG culture supernatant

B1: No. 32 항체 (Full IgG) (antibody, V domains shown)
VH: EVQLVQSGGGLIQPGGSLRLSCAASEFIVSSNYMTWVRQAPGKGLEWVSIIYPGGSTYYADSVKGRFTISRDNSKNTLYLRMNSLRAEDTAVYYCARDLPLTGTTLDYWGQGTLVTVSS
VL: not shown
Kd [1]: 0.305 nM | koff [1]: 0.000193 s⁻¹ | kon [1]: 633000 M⁻¹ s⁻¹ | Kd [2]: 0.147 nM

From patent KR20220013302A (dated 2022)
